Measurements reported in the DeepSol protein solubility set.

Assay: soluble on expression in E. coli; label from the status in PepcDB or PDB records

Soluble on expression in E. coli, not soluble:
MGSDKIHHHHHHMTGRQFDIEPLMDEINKSLKQEVNYLTEAQNTDLVKRTLTADHYVVPKVYHDYTTETVLTQSFETGLSVNQWIRSNPSRSDIQNFSQLVIQLMIDEMLLTGVVQTDPNYANFLYRPDSRQLVLLDFGATWTYSTEFRHDIHKLSMALLSGEIDKLMVGIYTRGYLDTRESDETKAQLREVLRMIGDISANLPQPVALQVDVAHDEIRAAAHVMGRGIRHTTLHKDLVLIGRKLTGMLLLLKEINAIVDFNEVRAHISAIKV, MGSDKIHHHHHHMTICYNFAYLDEGTKKKIRRTLLKAVAIPGHQIPFASREMPLPYGWGTGGIQVTAAVIGPEDILKVIDQGSDDTTNAVSIRNFFRSTTGVRTTTSTREATLIQTRHRIPETPLHAGQMLIYQVPMPEPLFKLEPRVSETIALHAMADYSLMYLKLYDQITRYGRIAIGYEYPVIVHDRYLTSSSPIPAYDVPKMHMSPALQLFGAGREKRLYAIPPYTRVIPLDFTDYPFDPVNTWQPCALCGAVESYKDEIVIDDAGNRQFICSDTDFCEHRR, MGSDKIHHHHHHMTISISEPTPPASLLAIKDEIRAEALKLGFSVCGFASATDAWPNGGWLREFVQAERHGAMGWMEETLERRSHPTAMWTDAKSAVVLGVNYGPDIDPLEQLADPARAAISVYAQGDDYHDVIKKRLKVLAGWMHRRFGQEVKVFVDTAPLLEKPLAQRAGLGWQGKHTNLVSRQFGSWLFLGSVLTTLDLPADDAEVDHCGSCRACLDVCPTNAFPAPRQLDARRCISYLTIELSGPIPAEFRPAMGNRIYGCDDCLAVCPWNKFASLSNEAKLVAREALRQPSLAELAVLDDAAFRALFSKNPIKRIGRDRFVRNVLYAIGNSGDAGLMAVVEPLLDDPAPVVRGAAVWAARRLLGDDAAALKRGENDESVLAEWS, MGSDKIHHHHHHMTKHFSPYDADKPLFATCSCGQHASEEDHLKAGMSTLEHQETGRSTEEEFSNDFIEAALVKAILPHERQRRDFLRAVGKGAAMAAISAVFPLGSLKAMAMEKGSIEKSTLKVGFIPITCAAPLILAEPMGFFKEQGLNVELNKTAGWALVRDKIMNHEYDASQFLAPMPLAMTLGAGSSAQTVNVAAIQNVNGQAIVLALKHKSNRDPKNWKGFKFAIPFEFSMHNFLLRYYLAEAGIDPDRDVQLRVVPPAEMLANLRAGNIDGFLGPDPFSQRAVFEGVGFIHILSQDIWNGHPCCSFGASASFIQQNPNTFAALYRAFLKSSAFAHDKNNRKEVAAIISKPKYLNQPEIIVNQVITGRYADGLGNIVNAPGRVGFEAIPWEGMALWMLTQMKRWGYLKGDVSYQAIAEKVFMMTDAKKAMQGLGLEVPQSSGKIVVMGKAFDPLKPQSYVDSFGIKR, MGSDKIHHHHHHMTKKTGFFKRLKALELPQKQLFAIALCQRMLPNYQLFSEVCEFGDPAVLNTVLELLWQSQYDNKLKFNIDVHLQRLEDNTPDPVDFEAYGVYPAMDAVVALSTLLSAIQDKNEEDIINISKLSSSTVANYIEAISDVDLVDDALDDFVFAHEVMEEEKELQNSLLEIIEENPKITAELVKGLRKDIIEAGVSNIGISIA, MGSDKIHHHHHHMTKRAYQYRFYPTPEQAQLLARTFGCVRFVYNAVLRYRTDAFYQRQERIGYVEANAYLTRMKKADETAFLNEVSSVPLQQCLRHQQAAFKHFFEGRARYPAFKNKRHRQAAEFTRSAFKYRNGQLFLAKCKEPLAIRWSRELPSEPTTITISKDSAGRYFVSCLCEFTPETLPVTPRMTGIDLGLKDLFITDQGERIGNPRHTAKYAARLAKAQRRLSKKKLGSANRAKARKRVARLHAKISDCRMDRLHKLSRRLINENQVVCVESLKVKNMLRNPSLAKAIADAGWGEFARQLEYKAQWAGRQLVRIDPWYPSSKRCSDCGHIKDALPLSVRAWDCPACGVTHDRDINAARNIKAAGLAVLALGENVSGMEPVSVSGSR, MGSDKIHHHHHHMTLPEPDFIARDPAVITAELIAQYEQMSGKTLYPAQVERLLIDLMAYRETLVRVGIQEAAKQNLVAYARAPMLDYLGQLVGVTRLPAQPARATLRFTLDAPLASPLPIPAGTRVESGDGVVAFATDEAATLPAGRTSLEIAATCQDAGSAGNGWQPGQIVNLMDDLGDMDVVVTNTAVTAGGVDEEDDERLRERIMLAPESFSNAGSRQAYRFHALRAHQSIVDVAVLSPTPGVVQLYPLLKTGLPDANMLALVQATCSAERVRPLTDYVEALAPTAIDYAIDVRLTVYPDVDGKAVKTQAQERLQAYAAERAGALGRDIVPSQIIAAVQVPGVYQATVASPGLQQVPEHGWARCTGVSVTLEGVSHG
